Experimental data taken from article PMC7241785, “Filaggrin and filaggrin 2 processing are linked together through skin aspartic acid protease activation” (PLoS ONE, 2020).

Biological target: T1, GST-Flag-SASPase 28 kDa recombinant protein (human, UniProt Q53RT3 85-343)
T1 construct: Skin aspartic acid protease, amino acids 1-259 of SASPase 28, corresponding to amino acids 85-343 of SASPase 37 (Q53RT3); Expression vector pEB9; also called GST-SASPase 28; 28 kDa SASPase; source: E. coli BL21, purified (glutathione resin); not shown: GST, N-terminal, kept; Flag, N-terminal, kept
T1 sequence (looked up): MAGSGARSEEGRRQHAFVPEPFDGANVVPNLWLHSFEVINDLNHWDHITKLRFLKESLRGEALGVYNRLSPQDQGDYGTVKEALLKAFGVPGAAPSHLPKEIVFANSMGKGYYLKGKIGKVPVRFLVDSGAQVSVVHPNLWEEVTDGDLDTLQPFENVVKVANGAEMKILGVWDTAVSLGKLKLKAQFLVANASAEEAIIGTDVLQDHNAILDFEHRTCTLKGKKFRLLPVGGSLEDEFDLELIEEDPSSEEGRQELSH
Assay: SPR; Biacore T200, 25°C, HBS-EP+; goat anti-GST on CM5 captures GST-Flag-SASPase 28 (1 μM, flow cell 2) and GST (flow cell 1); analyte MBP-HA-FLG2S100 at 0-6 μM, control MBP-HA at 3 and 6 μM; 1:1 Langmuir fit
Conditions: both partners purified

Kd: 488 nM | koff: 0.00226 s⁻¹ | kon: 4630 M⁻¹ s⁻¹
B1: MBP-HA FLG2 S100 (aa 2-95) (domain or fragment, human, UniProt Q5D862 2-95, looked up)
chain: TDLLRSVVTVIDVFYKYTKQDGECGTLSKGELKELLEKELHPVLKNPDDPDTVDVIMHMLDRDHDRRLDFTEFLLMIFKLTMACNKVLSKEYCK
notes: Filaggrin 2, amino acids 2-95 containing the S100 domain; Expression vector pEB7; also called MBP-HA FLG2 (aa 2-95); source: E. coli BL21, purified (amylose resin); not shown: MBP, N-terminal, kept; HA, N-terminal, kept
